Assay results as given in patent publication US9719067B2, “Generation of anterior foregut endoderm from pluripotent cells” (Mount Sinai School of Medicine, priority 2010, dated 2017).

What was measured:
Format in all cases: cell-based, human
ventralized AFE = assay: Induction of lung and parathyroid markers from ventralized AFE
Description: (§1) Mouse embryonic fibroblasts were depleted by a 24 h passage on Ma gel (Gibco) with Y-27632 (10 μM), and embryoid bodies were formed on low-adherence dishes (Costar). During embryoid body formation and differentiation, HES2 cells were reseeded at the same concentration (1:1 dilution), whereas HDF2 and HDF9 required a higher seeding (2:1-4:1 concentration) for efficient endoderm generation. Differentiations were performed in a medium of DMEM/F12 (Invitrogen) supplemented with N2 (Gibco), B27 (Gibco), ascorbic acid (50 μg/ml, Sigma). Glutamax (2 mM, Invitrogen), monothioglycerol ([…], Sigma). The following concentrations of factors were used for primitive streak formation, endoderm induction, anterior/pharyngeal endoderm induction, and subsequent anterior posterior and dorsoventral patterning: human BMP-4, 1 ng/ml and 10 ng/ml; human bFGF, 2.5 ng/ml; human activin A, 100 ng/ml; human Noggin, 200 ng/ml; Y-27632, 1 μM; SB-431542, 10 μM; human FGF10, 10 ng/ml; human FGF7, 10 ng/ml; murine EGF 20 ng/ml; and human WNT3a, 100 ng/ml. Hepatic conditions were as previously described 2 and contain BMP-4, 50 ng/ml; bFGF, 10 ng/ml; VEGF, 10 ng/ml; HGF, 10 ng/ml; TGFα, 20 ng/ml; dexamethasone, 40 ng/ml. All factors were purchased from R&D systems, except SB-431542 and Y-27632, which are from Tocris, and dexamethasone (Sigma). […]
(§2) Total RNA was extracted using Trizol (Invitrogen), phase lock tubes (5′ Prime) and the RNeasy kit (Qiagen). […] Amplified material was detected using SybrGreen (Invitrogen). Real-time quantitative PCR was performed on ABI 7900HT thermocycler (Applied Biosystems), with a 10-min step at 95° C. followed by 40 cycles of 95° C. for 15 s and 60° C. for 1 min. All experiments were done in triplicate with SYBR GreenER quantitative PCR SuperMix (Invitrogen). […] Absolute quantification was obtained in relation to a standard curve of genomic DNA dilution series. Quantified values for the gene of interest were normalized against input determined by the housekeeping genes GAPDH and β-ACTIN, qPCR for each culture well was performed in triplicate.

[1] = test system: activin A-induced definitive endoderm (HES2); assay: Anteriorization of activin A-induced definitive endoderm, factors added at day 5, marker mRNA by quantitative PCR at day 9
Description: as §1
as §2, with “triplicate. […]” for “triplicate.”

hES cell line HES2 = assay: Activin A induction of definitive endoderm from hES cells (flow cytometry, cell number); settings: after 4 d of exposure to activin A
Description: hESC (HES2, National Institutes of Health code ES02 from ES Cell International; passages 25-33) were cultured on mouse embryonic fibroblasts plated at 8,000-12,000 cells/cm^2, A medium of DMEM/F12, 20% knockout serum replacement (Gibco), 0.1 mM β-mercaptoethanol (Sigma-Aldrich), and 20 ng/ml FGF-2 (R&D) was changed daily. Cells were passaged with trypsin, washed and replated at a dilution of 1:5 to 1:10. HDF2 and HDF9, hiPS cell lines, were cultured as hES2. hES and hiPS cultures were maintained in a 5% CO2/air environment, and hES differentiations were maintained in a 5% CO2/5% O2/90% N2 environment.
Mouse embryonic fibroblasts were depleted by a 24 h passage on Ma gel (Gibco) with Y-27632 (10 μM), and embryoid bodies were formed on low-adherence dishes (Costar). During embryoid body formation and differentiation, HES2 cells were reseeded at the same concentration (1:1 dilution), whereas HDF2 and HDF9 required a higher seeding (2:1-4:1 concentration) for efficient endoderm generation. Differentiations were performed in a medium of DMEM/F12 (Invitrogen) supplemented with N2 (Gibco), B27 (Gibco), ascorbic acid (50 μg/ml, Sigma). Glutamax (2 mM, Invitrogen), monothioglycerol (0.4 μM, Sigma). […]
Day 5 embryoid bodies or day 13 monolayer cultures were dissociated with trypsin/EDTA (2 min). […] Cells were analyzed on a LSRII. […]

[2] = retinoic acid added to the WKFBE cocktail
[3] = mRNA at day 9, factors added at day 5

Molecule: CC1=C(/C=C/C(C)=C/C=C/C(C)=C/C(=O)O)C(C)(C)CCC1 [retinoic acid, all-trans retinoic acid]
- expression of FOXP2, NKX2.1, GATA6 and FOXJ1 (ventralized AFE; [2]): increased
- expression of the pharyngeal pouch marker PAX1 (ventralized AFE; [2]): decreased

B1: WNT3a: human WNT3a, agonist of canonical Wnt signaling; 100 ng/ml (protein, UniProt P56704 19-352, looked up)
Protein Wnt-3a: SYPIWWSLAVGPQYSSLGSQPILCASIPGLVPKQLRFCRNYVEIMPSVAEGIKIGIQECQHQFRGRRWNCTTVHDSLAIFGPVLDKATRESAFVHAIASAGVAFAVTRSCAEGTAAICGCSSRHQGSPGKGWKWGGCSEDIEFGGMVSREFADARENRPDARSAMNRHNNEAGRQAIASHMHLKCKCHGLSGSCEVKTCWWSQPDFRAIGDFLKDKYDSASEMVVEKHRESRGWVETLRPRYTYFKVPTERDLVYYEASPNFCEPNPETGSFGTRDRTCNVSSHGIDGCDLLCCGRGHNARAERRREKCRCVFHWCCYVSCQECTRVYDVHTCK
- CDX2 expression [1, 3]: increased

B2: FGF8: fibroblast growth factor 8, agonist of FGF signaling (protein, UniProt P55075 23-233, looked up)
Fibroblast growth factor 8: QEGPGRGPALGRELASLFRAGREPQGVSQQHVREQSLVTDQLSRRLIRTYQLYSRTSGKHVQVLANKRINAMAEDGDPFAKLIVETDTFGSRVRVRGAETGLYICMNKKGKLIAKSNGKGKDCVFTEIVLENNYTALQNAKYEGWYMAFTRKGRPRKGSKTRQHQREVHFMKRLPRGHHTTEQSLRFEFLNYPPFTRSLRGSQRTWAPEPR
- parathyroid-specific marker GCM2 (ventralized AFE; AFE ventralized with WKFBE in the absence of retinoic acid): induced

B3: sFRP3: soluble Frizzled-related protein 3, WNT antagonist (protein, UniProt Q92765 33-325, looked up)
Secreted frizzled-related …: AACEPVRIPLCKSLPWNMTKMPNHLHHSTQANAILAIEQFEGLLGTHCSPDLLFFLCAMYAPICTIDFQHEPIKPCKSVCERARQGCEPILIKYRHSWPENLACEELPVYDRGVCISPEAIVTADGADFPMDSSNGNCRGASSERCKCKPIRATQKTYFRNNYNYVIRAKVKEIKTKCHDVTAVVEVKEILKSSLVNIPRDTVNLYTSSGCLCPPLNVNEEYIIMGYEDEERSRLLLVEGSIAEKWKDRLGKKVKRWDMKLRHLGLSKSDSSNSDSTQSQKSGRNSNPRQARN
- induction of PAX9 and SOX2 when added to NOGGIN/SB-431542 ([1]; day 9, sFRP3 added with NOGGIN/SB-431542): detrimental
- SOX2 expression [1, 3]: not sufficient

B4: activin A: human activin A, soluble cytokine activating the same receptor as nodal; 100 ng/ml (protein, UniProt P08476 311-426, looked up)
Inhibin beta A chain: GLECDGKVNICCKKQFFVSFKDIGWNDWIIAPSGYHANYCEGECPSHIAGTSGSSLSFHSTVINHYRMRGHSPFANLKSCCVPTKLRPMSMLYYDDGQNIIKKDIQNMIVEECGCS
modifications: Inhibin beta A chain
notes: 100 ng/ml
- cells expressing the definitive endoderm markers CXCR4, c-KIT and EPCAM (hES cell line HES2): > 95%
